The text below walks through data of patent publication US20190382488A1 (IMAGINAB, published 2019).

A word on the EC50: it is the concentration giving half of the maximal effect. Read a low EC50 as higher potency in that assay. The term Kd denotes a measure of binding affinity in units of concentration. A word on the koff: it is the rate constant with which the complex falls apart. A word on the kon: it is the second-order rate constant of association. The term EC50 (read off the curve) denotes the concentration giving half of the maximal effect. A lower EC50 (read off the curve) goes with an effect from little substance.

The target of test [1] is T1, cell-surface human CD8 (human, UniProt P01732 22-235).
T1 construct: the cell is named under assay; also called cellular human CD8; CD8 on PC3-CD8 cells
T1 sequence (P01732 22-235 limits assumed): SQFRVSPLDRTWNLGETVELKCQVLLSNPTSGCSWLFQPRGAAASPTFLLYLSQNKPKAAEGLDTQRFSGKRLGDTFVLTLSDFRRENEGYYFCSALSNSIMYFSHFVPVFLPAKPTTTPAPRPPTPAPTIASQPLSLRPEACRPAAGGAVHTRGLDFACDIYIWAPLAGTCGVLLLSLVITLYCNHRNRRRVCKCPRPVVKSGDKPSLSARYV
The experiment in a line: flow cytometry, primary human CD8+ T cells, Protein L-biotin and streptavidin-APC. As for the experimental part:
(§1) Flow cytometry analysis of cys-diabody binding to cell-surface human CD8 on primary human CD8+ T cells was performed. Cells were stained with respective concentrations of cys-diabody, washed, stained with a secondary Protein L conjugated to Biotin, washed, then stained with a tertiary streptavidin-APC. Analysis was performed with 10,000 events/point in triplicate for each concentration. The results are shown in graph format in FIG. 30B. The graph presents the mean fluorescence intensity (MFI) vs. the log of the concentration (nM). Error bars represent the standard error. The data indicates an EC₅₀ of 0.02 nM.

Test [2] deals with T1, cell-surface human CD8. The experiment in a line: flow cytometry on HPB-ALL cells, Protein L-biotin then streptavidin-APC. As for the experimental part: as §1, with “of cys-diabody (+/−C-terminal cysteine conjugation to Desferoxamine) binding to” for “of cys-diabody binding to”, “CD8 on HPB-ALL cells was” for “CD8 on primary human CD8+ T cells was”, “in FIG. 30C. The graph” for “in FIG. 30B. The graph”, “EC₅₀ of 0.04 nM and 0.06 nM.” for “EC₅₀ of 0.02 nM.”
(In flow cytometry, cells or beads pass a laser one at a time.)

Test [3] addresses T1, cell-surface human CD8. The experiment in a line: flow cytometry, HPB-ALL cells, Protein L-biotin and streptavidin-APC. As for the experimental part:
as §1, with “HPB-ALL” for “primary human CD8+ T”, “30A.” for “30B.”, “0.04” for “0.02”

Test [4] addresses T1, cell-surface human CD8. The experiment in a line: flow cytometry on primary human CD8+ T cells, Protein L-biotin then streptavidin-APC. As for the experimental part:
as §1

The target in test [5] is T1, cell-surface human CD8. The experiment in a line: flow cytometry on HPB-ALL cells, Protein L-biotin then streptavidin-APC. As for the experimental part: as §1, with “HPB-ALL” for “primary human CD8+ T”, “30A.” for “30B.”, “0.04” for “0.02”
The source holds these as a separate data set.

In test [6] the target is T2, recombinant human CD8 (rhCD8) (human, UniProt P01732 22-182).
T2 construct: Soluble purified recombinant protein; also called purified recombinant human CD8 protein; soluble CD8
T2 sequence (P01732 22-182 limits assumed): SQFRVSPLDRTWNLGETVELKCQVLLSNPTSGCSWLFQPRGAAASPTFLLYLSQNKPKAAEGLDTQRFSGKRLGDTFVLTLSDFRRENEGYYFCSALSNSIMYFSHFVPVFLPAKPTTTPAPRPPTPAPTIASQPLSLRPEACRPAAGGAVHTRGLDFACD
The experiment in a line: SPR (BIAcore), minibody captured via anti-human IgG Fc, hCD8 analyte at 50 nM. The text has this:
(§2) Surface plasma resonance (SPR) was used to determine the binding affinity for all the IAb_Mb_CD8 variants to recombinant human CD8 (Table 8.0). The minibody protein in the supernatant was captured on to the BIAcore chip using an anti-human IgG (Fc-specific) antibody. The amount of minibody captured on the chip was normalized to enable a direct comparison of binding affinity between the variants as a kinetic “scouting” experiment to rank affinities. The rhCD8 protein was passed over the captured minibody protein to measure binding.
(§3) Table 8.0 summarizes the measured association (ka), dissociation (kd), and kD constants for the IAb_Mb_CD8 variants binding to recombinant hCD8. The variants were captured on a BIAcore chip using anti-human Fc-specific IgG antibody.
Background: In SPR one partner is held on a chip, and binding of the other changes the refractive index at the surface.

The target of test [7] is T1, cell-surface human CD8. The experiment in a line: flow cytometry on HPB-ALL cells, anti-human IgG (Fc-specific)-APC. As for the experimental part:
(§4) Flow cytometry analysis of minibodies binding to cell-surface human CD8 on HPB-ALL cells was performed. Cells were stained with respective concentrations of minibody, washed, and then stained with a secondary anti-human IgG (Fc-specific) APC-conjugated antibody. Analysis was performed with 10,000 events/point in triplicate for each concentration. The results are shown in graph format in FIG. 29A. The graph presents the normalized mean fluorescence intensity (MFI) vs. the log of the concentration (nM). Error bars represent the standard error. The data indicates an EC₅₀ of 0.15 nM and 0.19 nM.

Test [8] concerns the target T1, cell-surface human CD8. The experiment in a line: flow cytometry, primary human CD8+ T cells. As for the experimental part: as §4, with “primary human CD8+ T” for “HPB-ALL”, “29B.” for “29A.”, “0.1” for “0.15”, “0.26” for “0.19”
Test [9] addresses T1, cell-surface human CD8. The experiment in a line: flow cytometry on PC3 cells overexpressing CD8, anti-human IgG (Fc-specific)-APC. As for the experimental part: Flow cytometry analysis of minibody (+/−lysine conjugation to Desferoxamine) binding to PC3 cells overexpressing CD8 was performed. Cells were stained with respective concentrations of minibody, washed, and then stained with a secondary anti-human IgG (Fc-specific) APC-conjugated antibody. Analysis was performed with 10,000 events/point in triplicate for each concentration. The results are shown in graph format in FIG. 29D. The graph presents the mean fluorescence intensity (MFI) vs. the log of the concentration (nM). Error bars represent the standard error. The data indicates an EC₅₀ of 0.64 nM and 0.83 nM.

For test [10], the target named is T2, recombinant human CD8 (rhCD8). The experiment in a line: SPR (summary table).
From the text: as §2, §3

For test [11], the target named is T1, cell-surface human CD8. The experiment in a line: flow cytometry, HPB-ALL cells. As for the experimental part:
as §4
as §4, with “analysis of IgG2 minibodies binding” for “analysis of minibodies binding”, “in FIG. 29E. The graph” for “in FIG. 29A. The graph”, “EC₅₀ of 0.1 nM, 0.13 nM, and 0.08” for “EC₅₀ of 0.15 nM and 0.19”, “nM, and 0.08 nM.” for “nM and 0.19 nM.”

Test [12] has as its target T1, cell-surface human CD8. The experiment in a line: flow cytometry on HPB-ALL cells, anti-human IgG (Fc-specific)-APC. This is another data set of the same source.
Test [13] deals with T1, cell-surface human CD8. The experiment in a line: flow cytometry, PC3 cells overexpressing CD8.
The target in test [14] is T1, cell-surface human CD8. The experiment in a line: flow cytometry on primary human CD8+ T cells, anti-human IgG (Fc-specific)-APC. As for the experimental part:
as §4, with “primary human CD8+ T” for “HPB-ALL”, “29B.” for “29A.”, “0.1” for “0.15”, “0.26” for “0.19”

Test [15] deals with T1, cell-surface human CD8. The experiment in a line: flow cytometry on HPB-ALL cells, anti-human IgG (Fc-specific)-APC. As for the experimental part:
as §4, with “analysis of IgG2 minibodies binding” for “analysis of minibodies binding”, “in FIG. 29E. The graph” for “in FIG. 29A. The graph”, “EC₅₀ of 0.1 nM, 0.13 nM, and 0.08” for “EC₅₀ of 0.15 nM and 0.19”, “nM, and 0.08 nM.” for “nM and 0.19 nM.”
This is another data set of the same source.

Test [16] has as its target T2, recombinant human CD8 (rhCD8). The experiment in a line: SPR (summary table); Table 9 summary.

B1: IAb_Cys-Db3b_CD8 (other)
chain: DVQITQSPSSLSASVGDRVTITCRTSRSISQYLAWYQQKPGKVPKLLIYSGSTLQSGVPSRFSGSGSGTDFTLTISSLQPEDVATYYCQQHNENPLTFGGGTKVEIKGGGSGGGGEVQLVESGGGLVQPGGSLRLSCAASGFNIKDTYIHFVRQAPGKGLEWIGRIDPANDNTLYASKFQGKATISADTSKNTAYLQMNSLRAEDTAVYYCGRGYGYYVFDHWGQGTLVTVSSGGC
notes: Cys-diabody homodimer; also called humanized OKT8 cys-diabody VL-8-VH
Consider B1, for which the EC50 with cell-surface human CD8 [1] worked out at 0.02 nM; in the test with cell-surface human CD8 [2], 0.04 nM; in the test with cell-surface human CD8 [3], 0.04 nM; with cell-surface human CD8 [4] it was 0.02 nM; in the test with cell-surface human CD8 [5] it was 0.04 nM.

B2: IAb_Mb1b_CD8 (other)
chain: DVQITQSPSSLSASVGDRVTITCRTSRSISQYLAWYQQKPGKVPKLLIYSGSTLQSGVPSRFSGSGSGTDFTLTISSLQPEDVATYYCQQHNENPLTFGGGTKVEIKGSTSGGGSGGGSGGGGSSEVQLVESGGGLVQPGGSLRLSCAASGFNIKDTYIHFVRQAPGKGLEWIGRIDPANDNTLYASKFQGKATISADTSKNTAYLQMNSLRAEDTAVYYCGRGYGYYVFDHWGQGTLVTVSSEPKSCDKTHTCPPCGGGSSGGGSGGQPREPQVYTLPPSRDELTKNQVSLTCLVKGFYPSDIAVEWESNGQPENNYKTTPPVLDSDGSFFLYSKLTVDKSRWQQGNVFSCSVMHEALHNHYTQKSLSLSPGK
notes: also called IAb M1b CD8
For B2, the Ka in [6] worked out at 5.4e+08 M⁻¹. Moreover, the Kd in test [6] and in test [10] was 1.9 nM throughout. For the same molecule, in test [6], the koff turned out to be 0.0012 s⁻¹. The kon in test [6] was 640000 M⁻¹ s⁻¹. The EC50 with cell-surface human CD8 [7] amounted to 0.15 nM; with cell-surface human CD8 [8] it was 0.1 nM; with cell-surface human CD8 [9], 0.64 nM; in the test with cell-surface human CD8 [11] it was 0.1 nM; with cell-surface human CD8 [12], 0.13 nM; with cell-surface human CD8 [13], 0.6 nM. Besides, the EC50 in the test with cell-surface human CD8 [14] and with cell-surface human CD8 [15] was 0.1 nM in each case. Besides, the “EC50 (read off the curve)” value in the test with cell-surface human CD8 [9] is about 0.7 nM; in the test with cell-surface human CD8 [14], about 0.1 nM.

B3: IAb_Mb2b_CD8 (other)
chain: EVQLVESGGGLVQPGGSLRLSCAASGFNIKDTYIHFVRQAPGKGLEWIGRIDPANDNTLYASKFQGKATISADTSKNTAYLQMNSLRAEDTAVYYCGRGYGYYVFDHWGQGTLVTVSSGSTSGGGSGGGSGGGGSSDVQITQSPSSLSASVGDRVTITCRTSRSISQYLAWYQQKPGKVPKLLIYSGSTLQSGVPSRFSGSGSGTDFTLTISSLQPEDVATYYCQQHNENPLTFGGGTKVEIKEPKSCDKTHTCPPCGGGSSGGGSGGQPREPQVYTLPPSRDELTKNQVSLTCLVKGFYPSDIAVEWESNGQPENNYKTTPPVLDSDGSFFLYSKLTVDKSRWQQGNVFSCSVMHEALHNHYTQKSLSLSPGK
notes: also called IAb M2b CD8
In the case of B3, the equilibrium dissociation constant (Kd) in test [16] came to 3.6 nM. In addition, in test [6], the Ka is 2.6e+08 M⁻¹, the Kd stood at 3.9 nM, the off-rate constant (koff) is 0.0021 s⁻¹ and the kon was determined as 540000 M⁻¹ s⁻¹. Moreover, the EC50 with cell-surface human CD8 [7] is 0.19 nM. Besides, in the test with cell-surface human CD8 [8], the EC50 was 0.26 nM. The EC50 with cell-surface human CD8 [11] amounted to 0.19 nM. Besides, in the test with cell-surface human CD8 [14], the response was half-maximal at 0.26 nM (EC50) and the “EC50 (read off the curve)” value was about 0.3 nM.
